{"source": "paper PMC12141448", "key": {"[1]": {"target": "PelB of P. aeruginosa PAO1, C-terminal fragment (residues 762-1193) with three periplasmic TPR repeats and the transmembrane β-barrel (Pseudomonas aeruginosa PAO1) (UniProt Q9HZE5)", "assay": "cryo-EM structure; PelBC complex in MSP1D1 nanodiscs (POPC:POPG 70:30), 50 mM HEPES pH 7.4, 150 mM NaCl; no symmetry imposed; 2.52 Å"}, "[2]": {"target": "PelC lipoprotein of P. aeruginosa PAO1 (Pseudomonas aeruginosa PAO1)", "assay": "cryo-EM structure; PelBC complex in MSP1D1 nanodiscs (POPC:POPG 70:30), 50 mM HEPES pH 7.4, 150 mM NaCl; no symmetry imposed; 2.52 Å"}}}
{"substance": "PelC lipoprotein of P. aeruginosa PAO1 (natural protein)", "values": [{"measurement": "stoichiometry N (PelC per PelB)", "setting": "[1]", "result": 12}, {"measurement": "stoichiometry N", "setting": "[2]", "result": 12, "unit": "subunits"}]}
